According to publication doi:10.64898/2025.12.11.692727, “Nucleophagy removes cytotoxic trapped PARP1” (bioRxiv, 2025):

Target: T1, PARP1, recombinant, full length (printed as GFP-PARP1 in the results) (UniProt P09874 1-1014)
T1 construct: Full-length PARP1 cloned into the NcoI and BamHI sites of the pNIC28 vector; The results call the purified protein GFP-PARP1; the methods describe full-length PARP1 in pNIC28 without naming GFP; source: E. coli expression system, purified
Experiment: pull-down; in vitro; PARP1 (2.5 µM) loaded on PARP1-trap beads, TEX264 (2.5 µM) added, 2 hrs at 4°C; 50 mM HEPES pH 7.4, 500 mM NaCl, 0.01% Triton X-100, 1 mM TCEP; stringent washes with 0.1% Triton X-100; Western blot
Conditions: both partners purified

T1 sequence (P09874 whole entry): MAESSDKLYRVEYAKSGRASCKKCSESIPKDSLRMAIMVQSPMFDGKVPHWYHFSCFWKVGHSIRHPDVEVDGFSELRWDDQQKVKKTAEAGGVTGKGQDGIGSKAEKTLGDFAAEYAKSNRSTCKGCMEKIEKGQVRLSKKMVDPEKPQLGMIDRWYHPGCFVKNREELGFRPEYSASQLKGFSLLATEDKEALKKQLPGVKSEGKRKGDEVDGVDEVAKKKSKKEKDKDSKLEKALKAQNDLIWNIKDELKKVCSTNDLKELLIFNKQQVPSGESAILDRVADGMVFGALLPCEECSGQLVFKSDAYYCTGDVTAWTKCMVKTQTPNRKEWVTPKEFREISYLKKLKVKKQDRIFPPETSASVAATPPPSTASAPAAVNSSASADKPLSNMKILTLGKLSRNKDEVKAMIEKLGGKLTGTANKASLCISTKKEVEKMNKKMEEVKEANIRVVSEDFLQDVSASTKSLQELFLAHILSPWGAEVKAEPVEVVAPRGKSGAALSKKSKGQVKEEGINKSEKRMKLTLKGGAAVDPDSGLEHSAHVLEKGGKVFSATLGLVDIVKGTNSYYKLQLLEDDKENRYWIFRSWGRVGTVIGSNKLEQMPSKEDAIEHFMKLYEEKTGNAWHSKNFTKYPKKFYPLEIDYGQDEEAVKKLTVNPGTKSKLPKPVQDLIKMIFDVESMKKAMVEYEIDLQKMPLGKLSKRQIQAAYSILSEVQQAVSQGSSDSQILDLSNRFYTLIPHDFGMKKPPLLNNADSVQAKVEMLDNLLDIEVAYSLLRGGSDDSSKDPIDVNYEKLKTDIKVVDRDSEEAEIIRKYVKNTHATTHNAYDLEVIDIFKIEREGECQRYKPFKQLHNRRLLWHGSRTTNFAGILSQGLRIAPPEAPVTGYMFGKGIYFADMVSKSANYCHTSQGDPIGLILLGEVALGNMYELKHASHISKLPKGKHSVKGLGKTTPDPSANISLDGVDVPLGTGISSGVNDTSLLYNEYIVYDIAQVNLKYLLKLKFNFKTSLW

B1: TEX264 C-terminal half (186-313), recombinant (domain or fragment, UniProt Q9Y6I9 186-313, looked up)
chain: RQGDFYVPEMKETEWKWRGLVEAIDTQVDGTGADTMSDTSSVSLEVSPGSRETSAATLSPGASSRGWDDGDTRSEHSYSESGASGSSFEELDLEGEGPLGESRLDPGTEPLGTTKWLWEPTAPEKGKE
notes: The range 186-313 of the methods is tied to the 'C-terminal half' of the results by its position; source: E. coli expression system, purified
B1: binds.
